From patent CN117736324A

Key:
[1] = biological target: T1, 人Siglec-15抗原 (Siglec-15蛋白胞外段) (human) (UniProt Q6ZMC9); test: ELISA, relative binding activity of HA-I purified by the method of Example 27; reference not given
T1 sequence (looked up): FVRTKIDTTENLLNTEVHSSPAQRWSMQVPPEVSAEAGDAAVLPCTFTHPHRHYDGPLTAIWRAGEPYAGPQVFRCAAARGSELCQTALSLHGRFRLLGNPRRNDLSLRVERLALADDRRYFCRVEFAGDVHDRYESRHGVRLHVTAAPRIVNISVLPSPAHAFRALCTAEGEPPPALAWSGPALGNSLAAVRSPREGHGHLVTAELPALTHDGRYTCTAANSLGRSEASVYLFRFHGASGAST

[2] = biological target: T1, 人Siglec-15抗原 (Siglec-15蛋白胞外段) (human); test: ELISA, relative binding activity of HA-I purified by the method of Example 24; reference not given
[3] = biological target: T1, 人Siglec-15抗原 (Siglec-15蛋白胞外段) (human); test: ELISA, relative binding activity of HA-I purified by the method of Example 26; reference not given
[4] = biological target: T1, 人Siglec-15抗原 (Siglec-15蛋白胞外段) (human); test: ELISA, relative binding activity of HA-I purified by the method of Example 28; reference not given
[5] = biological target: T1, 人Siglec-15抗原 (Siglec-15蛋白胞外段) (human); test: ELISA, relative binding activity of HA-I purified by the method of Example 31; reference not given
[6] = biological target: T1, 人Siglec-15抗原 (Siglec-15蛋白胞外段) (human); test: ELISA, relative binding activity of HA-I purified by the method of Example 30; reference not given
[7] = biological target: T1, 人Siglec-15抗原 (Siglec-15蛋白胞外段) (human); test: ELISA, relative binding activity of HA-I purified by the method of Example 32; reference not given
[8] = biological target: T1, 人Siglec-15抗原 (Siglec-15蛋白胞外段) (human); test: ELISA, relative binding activity of HA-I purified by the method of Example 33; reference not given
[9] = biological target: T1, 人Siglec-15抗原 (Siglec-15蛋白胞外段) (human); test: ELISA, relative binding activity of HA-I purified by the method of Example 29; reference not given

B1: 抗Siglec-15单克隆抗体HA-I (人源化抗体分子, human IgG1/Ck) (antibody, V domains shown)
VH: QVQLVQSGAEVKKPGASVKVSCKASGYTFTDYNMFWVRQAPGQRLEWIGYIYPDNGGTGYNQNFKSKATLTVDNSASTAYMELSSLRSEDTAVYYCARSEYDYFDYWGQGTLVTVSS
VL: DIVLTQSPSSLSASVGDRVTITCRASQDISNYLNWYQQKPGKAVKLLIYYTSRLHSGVPSRFSGSGSGTDYTFTISSLQPEDIATYFCQQGNTLPLTFGQGTKVELKR
- 结合活性(%) [1]: 88%
- 结合活性(%) [2]: 100%
- 结合活性(%) [3]: 112%
- 结合活性(%) [4]: 90%
- 结合活性(%) [5]: 79%
- 结合活性(%) [6]: 105%
- 结合活性(%) [7]: 86%
- 结合活性(%) [8]: 83%
- 结合活性(%) [9]: 78%
